According to PMC2739207 (BMC Structural Biology, 2009):

Key:
[1] = target: T1, 40 kDa C-terminal fragment of the lysosomal 66.3 kDa protein from mouse (C249-D594) (mouse, UniProt Q3TCN2 249-594, N-glycans at N441 and N520; C249 partially oxidized, modeled as cysteine sulfonic acid (OCS)); test: crystal structure; crystals grown under acidic conditions (PEG 4000, NaAc/HAc pH 4.6, NH4Ac); crystal form I, space group C2, one molecule in the asymmetric unit; 3FGR at 1.8 Å, 3FGT at 2.4 Å; conditions: both partners purified
T1 construct: lysosomal 66.3 kDa protein, mouse; C-terminal proteolytic fragment beginning at C249; ordered in 3FGR and 3FGT: C249-P592; W593, D594 and the eleven tag residues are disordered; Made by cleavage of the 66.3 kDa proprotein between S248 and C249; also called 40 kDa fragment; chain B; source: gel filtration only for the batch of 3FGR
T1 sequence (looked up): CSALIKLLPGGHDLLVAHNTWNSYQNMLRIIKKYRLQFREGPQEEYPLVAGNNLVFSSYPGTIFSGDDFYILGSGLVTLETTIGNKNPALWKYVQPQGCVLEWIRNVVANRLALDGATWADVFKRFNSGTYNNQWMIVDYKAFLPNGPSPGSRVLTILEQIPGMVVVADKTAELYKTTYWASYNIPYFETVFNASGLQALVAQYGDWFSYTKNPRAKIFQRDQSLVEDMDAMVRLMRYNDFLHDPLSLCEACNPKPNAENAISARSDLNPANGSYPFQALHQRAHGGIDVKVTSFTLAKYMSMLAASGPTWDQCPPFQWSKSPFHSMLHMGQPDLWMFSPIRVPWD

[2] = target: the molecule itself; test: SEC; gel filtration column during protein purification, after affinity and anion exchange columns; single 280 nm absorption peak; conditions as in ref. 17

Binder	binding result [1]	stoichiometry N [2]
28 kDa N-terminal fragment of the lysosomal 66.3 kDa protein from mouse, shorter form (L47-S246) (domain or fragment, UniProt Q3TCN2 47-246, looked up, N-glycans at N115 and N236 seen in 3FGT, lysosomal 66.3 kDa protein, mouse; 28 kDa fragment truncated at the C-terminus by two residues; residues L47-S246 by mass spectrometry; ordered in 3FGT: D60-N239; residues after N239 are disordered in the structure; also called shorter version of the 28 kDa fragment; chain A of 3FGT; source: HT1080 human fibrosarcoma cells, overexpressed, purified (original protocol lacking a gel filtration)) LPTLGPGWQRQNPDPPVSRTRSLLLDAASGQLRLEDGFHPDAVAWANLTNAIRETGWAYLDLSTNGRYNDSLQAYAAGVVEASVSEELIYMHWMNTVVNYCGPFEYEVGYCEKLKNFLEANLEWMQREMELNPDSPYWHQVRLTLLQLKGLEDSYEGRLTFPTGRFTIKPLGFLLLQISGDLEDLEPALNKTNTKPSLGS	binds	
28 kDa N-terminal fragment of the lysosomal 66.3 kDa protein from mouse (L47-S248) (domain or fragment, UniProt Q3TCN2 47-248, looked up, N-glycans at N93, N115 and N236, lysosomal 66.3 kDa protein, mouse; N-terminal proteolytic fragment after cleavage between S248 and C249; residues L47-S248 by mass spectrometry; ordered in 3FGR: V63-T238 and G245-S248; Made by cleavage of the 66.3 kDa proprotein; it never stood apart from the 40 kDa fragment; The protein batch also holds the shorter form L47-S246 and the uncleaved protein; also called 28 kDa fragment; …) LPTLGPGWQRQNPDPPVSRTRSLLLDAASGQLRLEDGFHPDAVAWANLTNAIRETGWAYLDLSTNGRYNDSLQAYAAGVVEASVSEELIYMHWMNTVVNYCGPFEYEVGYCEKLKNFLEANLEWMQREMELNPDSPYWHQVRLTLLQLKGLEDSYEGRLTFPTGRFTIKPLGFLLLQISGDLEDLEPALNKTNTKPSLGSGS	binds	
lysosomal 66.3 kDa protein from mouse (natural protein, UniProt Q3TCN2 47-594, looked up, N-glycans at N93, N115, N236, N441 and N520; mannose 6-phosphate containing, lysosomal 66.3 kDa protein, mouse; proprotein after removal of the signal peptide, L47-D594; ordered in 3FGW: P61-N239 and G245-D594; The preparation on the gel filtration column was a mixture of the uncleaved chain and the cleaved form (28 kDa plus 40 kDa fragments); the dimer is told of the 66.3 kDa protein as a whole; also called uncleaved 66.3 kDa protein; uncleaved form (3FGW)) LPTLGPGWQRQNPDPPVSRTRSLLLDAASGQLRLEDGFHPDAVAWANLTNAIRETGWAYLDLSTNGRYNDSLQAYAAGVVEASVSEELIYMHWMNTVVNYCGPFEYEVGYCEKLKNFLEANLEWMQREMELNPDSPYWHQVRLTLLQLKGLEDSYEGRLTFPTGRFTIKPLGFLLLQISGDLEDLEPALNKTNTKPSLGSGSCSALIKLLPGGHDLLVAHNTWNSYQNMLRIIKKYRLQFREGPQEEYPLVAGNNLVFSSYPGTIFSGDDFYILGSGLVTLETTIGNKNPALWKYVQPQGCVLEWIRNVVANRLALDGATWADVFKRFNSGTYNNQWMIVDYKAFLPNGPSPGSRVLTILEQIPGMVVVADKTAELYKTTYWASYNIPYFETVFNASGLQALVAQYGDWFSYTKNPRAKIFQRDQSLVEDMDAMVRLMRYNDFLHDPLSLCEACNPKPNAENAISARSDLNPANGSYPFQALHQRAHGGIDVKVTSFTLAKYMSMLAASGPTWDQCPPFQWSKSPFHSMLHMGQPDLWMFSPIRVPWD		2
